Assay results from publication PMC2706102 (Nature structural & molecular biology, 2009).

Target: the molecule itself
Test: HPLC sedimentation assay of aggregation

KKQQQQQQQQQQQQQQQQQQQQQQQQQQQQQQQQQQQPPPPPPPPPPKK [Q35P10]
binding result: binds

KKQQQQQQQQQQQQQQQQQQQQQQQQQQQQQQQQQQQKK [Q35]
binding result: binds
